Experimental data reported in PMC3744504, “Soluble Variants of Human Recombinant Glutaminyl Cyclase” (PLoS ONE, 2013).

Biological target: the molecule itself
Assay: SEC; analytical size exclusion chromatography (Superdex 5/150 column) on 50 µl of sample after the Ni-affinity step

B1: wild type human Glutaminyl Cyclase (hQPCT), Ala33-Leu361, His6-tagged (enzyme, UniProt Q16769 33-361, looked up)
chain: ASAWPEEKNYHQPAILNSSALRQIAEGTSISEMWQNDLQPLLIERYPGSPGSYAARQHIMQRIQRLQADWVLEIDTFLSQTPYGYRSFSNIISTLNPTAKRHLVLACHYDSKYFSHWNNRVFVGATDSAVPCAMMLELARALDKKLLSLKTVSDSKPDLSLQLIFFDGEEAFLHWSPQDSLYGSRHLAAKMASTPHPPGARGTSQLHGMDLLVLLDLIGAPNPTFPNFFPNSARWFERLQAIEHELHELGLLKDHSLEGRYFQNYSYGGVIQDDHIPFLRRGVPVLHLIPSPFPEVWHTMDDNEENLDESTIDNLNKILQVFVLEYLHL
notes: human glutaminyl-peptide cyclotransferase (glutaminyl cyclase), residues Ala33-Leu361, cloned in pQE80L; Not glycosylated (E. coli); Apo-protein mass by MALDI 38735 Da; No preparative size exclusion step was applied to the wild type; also called wild type hQPCT; Glutaminyl-peptide Cyclotransferase; not shown: His6, N-terminal, kept
  binding result: binds
